Experiments:
[1] = test system: tyrosine phosphorylation of STAT5 protein in T-47D human breast cancer cells; test: hPRL induction of tyrosine phosphorylation of STAT5 protein (Example 8); type: cell-based
Text: Assay of hPRL induction of tyrosine phosphorylation of STAT5 protein. […] Tyrosyl phosphorylation of STAT 5 is a receptor mediated event and is thought to be an important step in ligand-induced signal transduction (Wakao et al., 1994, EMBO J. 13: 2182–2191; Kazansky et al., 1995, Mol. Endocrinol. 9:1598–1609; Waxman et al., 1995, J. Biol. Chem. 270:13262–13270). This assay was used to evaluate the ability of hPRL and hPRLA to inhibit induction of STAT 5 phosphorylation by wild type PRL.
Briefly, human breast cancer cells were plated in 12-well plates. After pre-incubation in serum-free DMEM for 2–3 hours, the cells were exposed to various concentration of hPRL and hPRLA in serum-free DMEM. The cells were incubated for 15 min at 37° C., washed once with PBS, and lysed in 300 μl lysis buffer (50 mM Tris-HCl, pH 6.8, 1% SDS, 1% β-mecaptoethanol, 0.1M DTT, 5% Sucrose, 100 uM Sodium Orthovanadate, and 0.6% bromphenol blue). Thirty microliters of cell lysates were subjected to 4–12.5% SDS-PAGE and immunoblot analysis using horse radish peroxidase (HRP)-conjugated anti-phosphotyrosine antibody PY20 and ECL reagent kit (Amersham, Ill.). Blots were then exposed to X-ray films and developed using standard procedures (Kodak, Rochester, N.Y.). This assay has been described in Chen et al., 1994, J. Biol. Chem. 269: 15892–15897; Chen et al., 1995, Endocrinol. 136:660–667; Wang et al., 1994, Proc. Natl. Acad. Sci. U.S.A. 91:1391–1395; Chen et al., 1995, Mol. Endocrinol. 9(3):292–302; Harding et al., 1996, J. Biol. Chem. 271(12):6708–6712.

[2] = test system: T47-D human breast cancer cells; test: 96 well cell proliferation assay with conditioned media (MTS-PMS); type: cell-based
Protocol: HPRLG129R Conditioned Media. The assay conditions were modified from that described by Ginsburg and Vonderharr (1995, Cancer Res. 55:2591–2595). T47-D cells were trypsinized and passed into 96 well plates in RPMI-1640 media containing 1% DCC-FCS in a volume of 100 μl/well. The optimal cell number/well for each cell line was pre-determined after titration assay. For T47-D cells, 15,000 cells/well were plated. The cells were allowed to settle and adhere overnight (12–18 hours) and subsequently various concentrations of either hPRL, hRPL-G129R, E2 or 4-OH-Tamoxifen in a total volume of 100 μl of culture media were added. Purified hPRL (kindly provided by Dr. Parlow, National Hormone & Pituitary Program, NIH) was used as a positive control for hPRL produced from stable L cells. Cells were incubated for an additional 96 hours at 37° C. in a humidified 5% CO2 incubator. After incubation, MTS-PMS solution (Cell Titer 96 Aqueous kit, Promega Corp.) was added to each well, following the manufacturer's instructions. Plates were read at 490 nm using a BIO-RAD benchmark microplate reader. The experiments were carried out in triplicates and repeated three to six times for each cell line.

B1: hPRL-G129R: variant of human prolactin having a substitution of the glycine at position 129 with an arginine residue; prolactin receptor antagonist (protein)
chain: LPICPGGAARCQVTLRDLFDRAVVLSHYIHNLSSEMFSEFDKRYTHGRGFITKAINSCHTSSLATPEDKEQAQQMNQKDFLSLIVSILRSWNEPLYHLVTEVRGMQEAPEAILSKAVEIEEQTKRLLERMELIVSQVHPETKENEIYPVWSGLPSLQMADEESRLSAYYNLLHCLRRDSHKIDNYLKLLKCRIIHNNNC
induction of phosphorylation of STAT5 proteins ([1]; T-47D cells, 5 nM of hormone alone, Western blot FIG. 3): absent
hPRL-induced phosphorylation of STAT5 proteins in presence of hPRLA ([1]; equal amounts: 5 nM hPRL and 5 nM hPRLA (lane 4)): partially eliminated
hPRL-induced phosphorylation of STAT5 proteins in presence of hPRLA ([1]; excess of hPRLA: 5 nM hPRL and 25 nM hPRLA (lane 5)): undetectable
inhibitory effect of combination ([2]; 100 nM 4-OH-Tamoxifen in the presence of 100 ng/ml hPRL-G129R): approximately 32 % of control
effect on hPRL induced cell proliferation ([2]; 1:1 molar ratio hPRL-G129R:hPRL): stop the stimulatory effect of hPRL
effect on hPRL induced cell proliferation ([2]; 2:1 molar ratio hPRL-G129R:hPRL): inhibited cell proliferation
maximum inhibition by a single dose ([2]; 4-OH-Tamoxifen at 500 nM, T47-D): 25 % of control
inhibitory potency compared with maximal 500 nM dose of 4-OH-Tamoxifen ([2]; hPRL-G129R 150 ng/ml): more potent
inhibitory effects of combination compared to maximum dose of either agent ([2]; hPRL-G129R applied together with 4-OH-Tamoxifen): doubled
effect on T47-D proliferation, dose response ([2]; single dose, four-day incubation): dose dependent inhibitory effects

Reference: US7115556B2, “Use of anti-prolactin agents to treat proliferative conditions” (Greenville Hospital System, priority 1998, dated 2006)
